Experiment [1] concerns the target antigen X (known antigen used as control in the ELISA of Table 1). As to the kind of experiment: indirect ELISA, positive control: antigen X coated, anti-X-IgY applied, row B.
For experiment [2] the target is unchanged. As to the kind of experiment: indirect ELISA, positive control: antigen X coated, anti-X-IgY applied, row A.

Results on one substance are retold here after US20220288193A1.

With “anti-X-IgY (control IgY against antigen X) (antibody)”, the OD in experiment [1] was 1.43 OD; in experiment [2], 1.33 OD.
